In the data set the target is RNA polymerase II;RECQL5 1-620 D157A (human;human, UniProt P24928;P30876;P19387;O15514;P19388;P61218;P62487;P52434;P36954;P62875;P52435;P53 …, |D157A). Put plainly: cryo-EM.

These results are taken from paper PMC3702667.

Chain of RNA polymerase II;RECQL5 1-620 D157A (O94762 1-620 D157A, one chain of several): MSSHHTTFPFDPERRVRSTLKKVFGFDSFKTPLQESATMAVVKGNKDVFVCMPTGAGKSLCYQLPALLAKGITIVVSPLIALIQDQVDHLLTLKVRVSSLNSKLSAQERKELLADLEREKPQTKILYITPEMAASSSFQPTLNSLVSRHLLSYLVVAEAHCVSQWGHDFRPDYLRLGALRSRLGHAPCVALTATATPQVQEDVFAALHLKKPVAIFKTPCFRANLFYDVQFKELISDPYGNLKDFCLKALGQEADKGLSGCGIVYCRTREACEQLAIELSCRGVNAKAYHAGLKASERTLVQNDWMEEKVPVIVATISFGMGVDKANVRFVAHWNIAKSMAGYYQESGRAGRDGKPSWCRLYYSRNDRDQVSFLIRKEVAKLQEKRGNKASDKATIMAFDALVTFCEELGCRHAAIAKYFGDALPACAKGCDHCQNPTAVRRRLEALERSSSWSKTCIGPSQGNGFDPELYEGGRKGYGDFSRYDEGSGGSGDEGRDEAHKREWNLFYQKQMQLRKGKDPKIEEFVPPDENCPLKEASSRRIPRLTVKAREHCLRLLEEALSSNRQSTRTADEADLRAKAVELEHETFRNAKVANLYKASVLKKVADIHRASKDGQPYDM

B1: artificial transcription bubble (template DNA, nontemplate DNA, RNA) (mixed)
DNA 1: CTCAAGTACTTACGCCTGGTCATTACTA
DNA 2: TAGTAAACTAGTATTGAAAGTACTTGAGCTTAGACAGCATGTC
RNA: UAUAUGCAUAAAGACCAGGC
Turning to B1, the binding result is “binds”.
